Test results reported in patent US20200317768A1 (published 2020).

Tests used:
Human latent myostatin [1] = target: T1, Human latent myostatin (human, UniProt O14793 25-266; O14793 267-375); test: SPR (BIACORE T200), 37 C, pH7.4, avidity condition (capture 185 RU), 1:1 fit; pH 7.4
T1 construct: Biotinylated in the ELISAs; also called human myostatin latent form
T1 sequence 1: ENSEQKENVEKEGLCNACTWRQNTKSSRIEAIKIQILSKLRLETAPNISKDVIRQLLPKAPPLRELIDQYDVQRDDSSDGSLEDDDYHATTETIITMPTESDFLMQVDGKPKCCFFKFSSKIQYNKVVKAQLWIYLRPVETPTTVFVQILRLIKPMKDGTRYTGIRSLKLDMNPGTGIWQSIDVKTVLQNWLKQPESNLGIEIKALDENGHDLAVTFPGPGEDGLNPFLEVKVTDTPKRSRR
T1 sequence 2: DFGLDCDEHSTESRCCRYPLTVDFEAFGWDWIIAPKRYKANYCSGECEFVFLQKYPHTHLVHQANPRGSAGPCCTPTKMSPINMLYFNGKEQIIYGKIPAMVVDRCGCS
Protocol: (§1) The kinetic parameters of anti-latent myostatin antibodies against human, cynomolgus monkey (cyno), and mouse latent myostatin were assessed at 37° C. at pH7.4 using a BIACORE® T200 instrument (GE Healthcare). ProA/G (Pierce) was immobilized onto all flow cells of a CM4 chip using amine coupling kit (GE Healthcare). Anti-latent myostatin antibody and analytes were prepared in ACES pH7.4 (20 mM ACES, 150 mM NaCl, 1.2 mM CaCl₂), 0.05% TWEEN® 20, 0.005% NaN₃). […] Then human, cyno, or mouse latent myostatin was injected at 3.125 to 50 nM prepared by two-fold serial dilution, followed by dissociation. The sensor surface was regenerated with 25 mM NaOH. Kinetic parameters were determined by processing and fitting the data to a 1:1 binding model using BIACORE® T200 Evaluation software, version 2.0 (GE Healthcare).
(§2) All experimental settings were the same as in Example 7, except that measurements were also performed in ACES pH5.8 buffer in addition to ACES pH7.4 condition. Some antibodies were only measured against human latent myostatin. Antibody capture level was aimed at 185 RU and 18.5 RU, for avidity and affinity assay, respectively. Kinetic parameters were determined using 1:1 Binding fitting using BIACORE® T200 Evaluation software, version 2.0 (GE Healthcare).

Human latent myostatin [2] = target: T1, Human latent myostatin; test: SPR (BIACORE T200), 37 C, pH5.8, avidity condition (capture 185 RU), 1:1 fit; pH 5.8
Protocol: as §1, §2

Human latent myostatin [3] = target: T1, Human latent myostatin; test: SPR (BIACORE T200), 37 C, pH7.4, 1:1 fit; title prints avidity, by the text the affinity condition (capture 18.5 RU)
Protocol: as §1, §2

Binder	Kd (Human latent myostatin [1]) [nM]	koff (Human latent myostatin [1]) [s⁻¹]	kon (Human latent myostatin [1]) [M⁻¹ s⁻¹]	Kd (Human latent myostatin [2]) [nM]	koff (Human latent myostatin [2]) [s⁻¹]	kon (Human latent myostatin [2]) [M⁻¹ s⁻¹]	Kd (Human latent myostatin [3]) [nM]	koff (Human latent myostatin [3]) [s⁻¹]	kon (Human latent myostatin [3]) [M⁻¹ s⁻¹]
MS_M103205H781-SG1/M103202L719-SK1 (antibody, human IgG1, kappa, V domains shown, also called MS1032LO02-SG1; MSLO-02) VH: QVTLKESGPVLVKPTETLTLTCTVSGIDLSHTDISWVRQAPGKGLEWVGIISYAGSTYYMSWAKGRLTISKDTSKNQVVLTMTNMDPVDTATYYCARGVPAYSHGGDLWGQGTLVTVSS VL: DIVMTQSPATLSLSPGERATLSCQSSQSVYHNNWLSWFQQKPGQPPKLLIYWASTLAFGVPSRFSGSGSGTDFTLTISSLQPEDAATYYCAGGYGGGLYAFGQGTKVEIKR	0.298	0.000249	836000	24.3	0.0414	1.7e+06	1.64	0.00179	1.09e+06
MS_M103205H781-SG1/M103202L813-SK1 (antibody, human IgG1, kappa, V domains shown, also called MS1032LO03-SG1; MSLO-03) VH: QVTLKESGPVLVKPTETLTLTCTVSGIDLSHTDISWVRQAPGKGLEWVGIISYAGSTYYMSWAKGRLTISKDTSKNQVVLTMTNMDPVDTATYYCARGVPAYSHGGDLWGQGTLVTVSS VL: DIVMTQSPATLSLSPGERATLSCQTSQSVYHDNWLSWFQQKPGQPPKLLIYWASTLASGVPSRFSGSGSGTDFTLTISSLQPEDAATYYCAGGYGGGRYAFGQGTKVEIKR	0.196	0.000192	981000	9.66	0.00524	543000	1.08	0.00117	1.08e+06
